From paper PMC9404881, “Simultaneous Maturation of Single Chain Antibody Stability and Affinity by CHO Cell Display” (Bioengineering, 2022) come the findings set out here.

Residue numbers refer to the chain shown, from its start. Numbers in names are those of the source.

In test [1] the target is T1, His-TNFα-GFP (Homo sapiens, UniProt P01375, biotin (conjugated for the Octet measurement only)).
T1 construct: TNFα, antigen of the anti-human TNFα scFv; The names His-TNFα-GFP and GFP-TNFα are both printed, so the side on which GFP stands is not certain; Probably the soluble form of TNFα (surmise); also called GFP-TNFα; source: E. coli containing the PET28a (+)-TNFα-GFP plasmid, purified with a Ni column
Nature of the test: BLI; ForteBio Octet; biotinylated TNFα-GFP (20 μg/mL) fixed on streptavidin (SA) biosensors; scFv in solution, 250-8000 nM for wild type and 31.25-1000 nM for mutant; association 120 s, dissociation 180 s; KD = Koff/Kon. To be noted: both partners purified.

The target of test [2] is T1, His-TNFα-GFP. The test can be described thus: flow cytometry on cells; scFv displayed on CHO cells, labelled with TNFα-GFP and PE-conjugated anti-HA antibody for 1/2 h at 4 °C; with or without 5% BSA (antigen binding much reduced without BSA). To be noted: one partner purified.

T1 sequence (P01375 whole entry): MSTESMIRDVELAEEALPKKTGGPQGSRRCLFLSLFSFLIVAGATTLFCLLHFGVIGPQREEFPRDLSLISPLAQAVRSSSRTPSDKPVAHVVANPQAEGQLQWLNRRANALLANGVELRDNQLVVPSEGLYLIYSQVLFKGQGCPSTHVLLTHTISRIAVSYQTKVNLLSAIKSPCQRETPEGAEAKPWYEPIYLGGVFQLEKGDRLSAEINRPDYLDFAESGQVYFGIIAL

B1: Anti-human TNFα wild-type scFv (soluble, His-tagged) (scFv, V domains shown)
VH: QLVQSGPELKKPGETVKISCKASGYTFTNYGMNWVKQAPGKGLKWMGWINTYTGEPTYADDFKGRFAFSLETSASTAYLQINNLKNEDSATYFCAGRRSYDYDVAMDYWGQGTSVTIS
VL: DIVLTQSPASLAVSLGQRATISCRASESVDSYGNYFMHWYQQKPGQPPKLLIYRASNLESGIPARFSGSGSGTDFTLTINPVEADDVATYYCQQSNEEPLTFGSGTKLEIK
notes: scFv from Jie Tang (Institute of Biophysics, CAS); Theoretical mass with His tag about 25 kDa; also called αTNFα; anti-TNFα WT scFv; source: 293F cells, transfected, supernatant purified on a nickel column; not shown: His6, C-terminal, kept
In the test with His-TNFα-GFP [1], B1 came in with a dissociation constant (Kd) of 1550 nM, a dissociation rate constant (koff) of 0.00873 s⁻¹ and a kon of 5620 M⁻¹ s⁻¹.

B2: Anti-TNFα scFv mutant A115V displayed on CHO cells (scFv, V domains shown)
VH: B1 VH with A105V
VL: B1 VL
notes: Most enriched clone of the maturation under normal conditions (37 °C culture, 4 °C labelling); Display construct as m4; not shown: transmembrane peptide (TM), C-terminal, kept
On to B2, for which, in the test with His-TNFα-GFP [2], the binding result was “binds”.

B3: Anti-TNFα scFv mutant G94R (soluble, His-tagged) (scFv, V domains shown)
VH: B1 VH with G96R
VL: B1 VL
notes: position 94 of the heavy chain in the Chothia scheme, right before heavy chain CDR3; Found by AID mutagenesis and sorting on thermo-resistant CHO cells; The base change is printed as G316A; also called G316A (base); G94R scFv; source: 293F cells, transfected, supernatant purified on a nickel column; not shown: His6, C-terminal, kept
Turning to B3, in the test with His-TNFα-GFP [1], the affinity, expressed as Kd, was 9.69 nM; the dissociation rate constant (koff) was 0.00159 s⁻¹; the on-rate (kon) was 164000 M⁻¹ s⁻¹.
